In publication PMC5356539:
Several values for one entry are separate records, joined by “and”; a condition that tells them apart may be missing. Identical values can stand only once.

Experiments:
Assay in all cases: plate binding assay (luminescent)
poly-ornithine = conditions: miRNA species not given; 3'-biotinylated cytidine (bis)phosphate ligated; ELISA plate-immobilized protein, BSA block; PBS with or without 0.5 mM MgCl2, or HBSS with 1.26 mM Ca2+ and 0.9 mM Mg2+; neutral pH; 2 h at 37 C or overnight
AGO2 full-length (human) = conditions: Ca2+ and Mg2+; 3'-biotinylated cytidine (bis)phosphate ligated; ELISA plate-immobilized protein, BSA block; PBS with or without 0.5 mM MgCl2, or HBSS with 1.26 mM Ca2+ and 0.9 mM Mg2+; neutral pH; 2 h at 37 C or overnight …
sNRP1 (human) = sNRP1 (human) (UniProt O14786); conditions: 3'-biotinylated cytidine (bis)phosphate ligated, ELISA plate-immobilized protein, BSA block, PBS with or without 0.5 mM MgCl2, or HBSS with 1.26 mM Ca2+ and 0.9 mM Mg2+, neutral pH, 2 h at 37 C or overnight …
NRP1-Fc (rat) = conditions: 3'-biotinylated cytidine (bis)phosphate ligated; ELISA plate-immobilized protein, BSA block; PBS with or without 0.5 mM MgCl2, or HBSS with 1.26 mM Ca2+ and 0.9 mM Mg2+; neutral pH; 2 h at 37 C or overnight …

Sequence of sNRP1 (human) (O14786 22-640): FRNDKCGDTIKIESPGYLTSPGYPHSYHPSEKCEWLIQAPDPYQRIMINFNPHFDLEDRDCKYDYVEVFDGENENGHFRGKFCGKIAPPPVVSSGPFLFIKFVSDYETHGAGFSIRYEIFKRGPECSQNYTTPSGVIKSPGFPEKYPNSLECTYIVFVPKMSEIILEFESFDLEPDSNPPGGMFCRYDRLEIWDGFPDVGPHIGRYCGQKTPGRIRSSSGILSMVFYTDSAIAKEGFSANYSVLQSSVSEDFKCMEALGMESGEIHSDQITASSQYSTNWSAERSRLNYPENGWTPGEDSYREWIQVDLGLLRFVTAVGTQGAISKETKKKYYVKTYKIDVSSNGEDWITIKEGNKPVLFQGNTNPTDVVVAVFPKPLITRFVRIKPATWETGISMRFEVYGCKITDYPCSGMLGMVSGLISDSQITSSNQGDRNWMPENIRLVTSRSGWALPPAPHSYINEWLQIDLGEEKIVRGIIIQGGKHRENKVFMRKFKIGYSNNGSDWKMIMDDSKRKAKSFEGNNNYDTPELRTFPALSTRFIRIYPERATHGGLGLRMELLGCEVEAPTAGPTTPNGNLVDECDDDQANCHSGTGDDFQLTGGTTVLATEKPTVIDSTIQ

Q: Which results are given for miR-20a?
A: Kd (poly-ornithine): 6.67 nM; Kd (AGO2 full-length (human)): 7.27 nM

Q: miR-138 was tested. Which Kd (sNRP1 (human); 0.9 mM Mg2+, 1.2 mM Ca2+ (1.26 in Methods)) did it give?
A: Its Kd is 0.772 nM.

Q: What about the Kd (sNRP1 (human)) of the same substance?
A: Its Kd is 0.348 nM.

Q: For miR-331, which Kd (NRP1-Fc (rat)) is on record?
A: Its Kd is 0.911 nM.

Q: For miR-422, which Kd (sNRP1 (human)) is on record?
A: Its Kd is 0.344 nM and 0.138 nM.
